# Experimental data: article PMC5995911, “Gas41 links histone acetylation to H2A.Z deposition and maintenance of embryonic stem cell identity” (Cell Discovery, 2018)
# What was measured:
# J1 mESCs = experiment: RA-induced differentiation, expression of Tip60/p400 and SRCAP complex genes (qRT-PCR, Western blot); format: cell-based, mouse; conditions: 1 μM RA, ES cell medium without LIF; vs day 0; technical duplicate
# Protocol: mESCs were plated in 96-well ultra-low attachment round bottom plates (Corning) at 1000 cells/well in ES cell medium without LIF. Media was changed every other day before day 8 and daily thereafter. For RA treatment, mESCs seeded on gelatin-coated dishes were treated with 1 μM RA in ES cell medium without LIF. Undifferentiated mESCs cultured with LIF in gelatin-coated dishes, are considered as EB and RA day 0.
# Total RNA extraction, reverse transcription and quantitative real-time PCR (qPCR) were performed as previously described. Gene expression values were calculated by normalization to Actb using the comparative CT method. Primers used in the study are listed in Supplementary Table S6.
# [1] = molecular target: Gas41 YEATS domain (aa 15–159) S73A (human) (UniProt O95619); experiment: ITC; GAS41 YEATS (15-159) WT or mutants titrated with H3(1-34)K27ac peptide; 15 °C; 20 mM Tris-HCl pH 7.5, 500 mM NaCl, 5% glycerol, 2 mM β-mercaptoethanol; One Set of Binding Sites model
# [2] = molecular target: Gas41 YEATS domain (aa 15–159) Y74A (human) (UniProt O95619); experiment: as above
# [3] = molecular target: Gas41 YEATS domain (aa 15–159) with E95 mutated (human) (UniProt O95619); experiment: as above
# [4] = molecular target: Gas41 YEATS mutants with residues H71, S73, Y74 and F96 replaced with alanine; experiment: as above
Compound,change in gene expression of Tip60/p400 and SRCAP complex components (J1 mESCs),fold reduction of binding against wild type [1],fold reduction of binding against wild type [2],fold reduction of binding against wild type [3],fold reduction of binding against wild type [4]
"CC1=C(/C=C/C(C)=C/C=C/C(C)=C/C(=O)O)C(C)(C)CCC1 [RA, retinoic acid]",almost all the genes were downregulated,,,,
H3 (1–34) K27ac peptide (from UniProt P68431 2-35),,14 fold,69 fold,7 fold,94 fold
